This note sets out measurements from patent publication CN114539420A (SUZHOU INSTITUTE OF RESEARCH OF PSEUDO UNIV, dated 2022).

This experiment addresses T1, 重组人B7-H3蛋白 (recombinant human B7-H3-ECD protein, 11188-H08H, SinoBiological) (human, UniProt Q5ZPR3 29-466).
T1 construct: extracellular domain; Bought protein; The EC50 sentence says only 'human B7-H3 protein'; also called 人B7-H3重组蛋白; 重组人B7-H3-ECD蛋白
T1 sequence (looked up): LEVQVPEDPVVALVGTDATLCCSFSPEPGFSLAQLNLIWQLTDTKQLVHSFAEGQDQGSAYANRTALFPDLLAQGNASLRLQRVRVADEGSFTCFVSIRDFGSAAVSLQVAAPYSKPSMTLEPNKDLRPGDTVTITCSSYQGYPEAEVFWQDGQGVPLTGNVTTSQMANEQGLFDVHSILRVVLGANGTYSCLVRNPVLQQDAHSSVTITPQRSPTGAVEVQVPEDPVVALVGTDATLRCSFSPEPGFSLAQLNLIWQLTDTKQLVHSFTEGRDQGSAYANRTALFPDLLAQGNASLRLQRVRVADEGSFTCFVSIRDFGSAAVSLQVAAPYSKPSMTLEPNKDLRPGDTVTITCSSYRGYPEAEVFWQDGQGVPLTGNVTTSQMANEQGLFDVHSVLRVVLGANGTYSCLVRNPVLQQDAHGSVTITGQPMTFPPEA
Kind of experiment: ELISA on recombinant human B7-H3 protein (Fig. 2a, n=3).

B1: 嵌合单克隆抗体10-2#c (chimeric anti-B7-H3 monoclonal antibody) (antibody, human IgG1, V domains shown)
VH: EVQLQQSGPALVKPGTSVKISCKTSGYTFTEYIIHWVKQSHGKSLEWIGGINPNNGGTSYNQKFKGKATLTVDKSSSTAYMELRSLTSEDSAVYYCASRLAPSTAGFAYWGQGTMLTVSS
VL: DIVLTQTPAIMSASPGEKVTMTCRASSSVSYMHWYQQRSGTSPKTWIYDTSKLASGVPGRFSGSGSGTSYSLTISIMEAEDAATYYCQQWSSNPPTFGGGTKLEIK
notes: also called 抗B7-H3单克隆抗体; 嵌合抗体10-2#c
For the molecule B1, the concentration giving a half-maximal response (EC50) amounted to 2.22 ng/mL.
